T1: FLAG-tagged GCK (human, UniProt Q12851 1-820)
T1 sequence: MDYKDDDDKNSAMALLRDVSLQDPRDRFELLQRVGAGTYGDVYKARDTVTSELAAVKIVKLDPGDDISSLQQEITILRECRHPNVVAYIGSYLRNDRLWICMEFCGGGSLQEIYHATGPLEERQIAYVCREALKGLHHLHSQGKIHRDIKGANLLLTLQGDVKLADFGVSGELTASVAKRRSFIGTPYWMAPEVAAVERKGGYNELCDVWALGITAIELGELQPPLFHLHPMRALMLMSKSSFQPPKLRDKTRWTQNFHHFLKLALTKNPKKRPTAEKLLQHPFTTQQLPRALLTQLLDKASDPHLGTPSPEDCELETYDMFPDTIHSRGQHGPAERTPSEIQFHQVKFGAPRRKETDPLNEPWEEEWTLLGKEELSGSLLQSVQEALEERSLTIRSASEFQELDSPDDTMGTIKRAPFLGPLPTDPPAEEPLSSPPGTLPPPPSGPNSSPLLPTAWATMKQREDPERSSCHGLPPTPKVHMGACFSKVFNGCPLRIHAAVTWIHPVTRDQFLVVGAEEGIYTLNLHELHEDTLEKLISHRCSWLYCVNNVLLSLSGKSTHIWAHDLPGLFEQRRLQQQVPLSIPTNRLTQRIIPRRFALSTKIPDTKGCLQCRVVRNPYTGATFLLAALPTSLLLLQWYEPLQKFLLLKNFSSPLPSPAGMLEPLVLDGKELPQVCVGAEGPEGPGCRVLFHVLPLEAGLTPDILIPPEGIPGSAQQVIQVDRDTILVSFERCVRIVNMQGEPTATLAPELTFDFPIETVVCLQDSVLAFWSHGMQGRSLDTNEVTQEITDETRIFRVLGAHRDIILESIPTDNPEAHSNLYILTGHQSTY

T2: FLAG-tagged wild type (wt) MST1 (mouse, UniProt Q9JI11 1-487)
T2 construct: also called FLAG-MST1; full-length MST1
T2 sequence: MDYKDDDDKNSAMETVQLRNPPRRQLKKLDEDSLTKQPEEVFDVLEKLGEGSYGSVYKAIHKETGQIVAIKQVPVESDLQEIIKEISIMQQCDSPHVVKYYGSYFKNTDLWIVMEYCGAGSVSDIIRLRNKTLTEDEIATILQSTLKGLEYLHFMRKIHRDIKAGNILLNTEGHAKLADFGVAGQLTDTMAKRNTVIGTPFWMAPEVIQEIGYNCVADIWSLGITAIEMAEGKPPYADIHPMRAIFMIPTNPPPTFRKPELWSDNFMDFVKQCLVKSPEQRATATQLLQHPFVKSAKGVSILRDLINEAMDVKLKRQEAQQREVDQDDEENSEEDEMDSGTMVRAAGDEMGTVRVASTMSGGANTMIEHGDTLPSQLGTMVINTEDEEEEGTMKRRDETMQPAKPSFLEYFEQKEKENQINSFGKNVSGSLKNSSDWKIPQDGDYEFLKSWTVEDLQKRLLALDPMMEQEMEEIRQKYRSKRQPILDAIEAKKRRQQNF

B1: HA-NORE1 (other)
chain: MYPYDVPDYAMASPAIGQRPYPLLLDPEPPRYLQSLGGTEPPPPARPRRCIPTALIPAAGASEDRGGRRSGRRDPEPTPRDCRHARPVRPGLQPRLRLRPGSHRPRDVRSIFEQPQDPRVLAERGEGHRFVELALRGGPGWCDLCGREVLRQALRCANCKFTCHSECRSLIQLDCRQKGGPALDRRSPGSTLTPTLNQNVCKAVEETQHPPTIQEIKQKIDSYNSREKHCLGMKLSEDGTYTGFIKVHLKLRRPVTVPAGSGPSPSMDAIKEVNPAATTDKRTSFYLPLDAIKQLHISSTTTVSEVIQGLLKKFMVVDNPQKFALFKRIHKDGQVLFQKLSIADYPLYLRLLAGPDTDVLSFVLKENETGEVEWDAFSIPELQNFLTILEKEEQDKIHQLQKKYNKFRQKLEEALRESQGKPG
notes: also called recombinant hemagglutinin (HA)-tagged NORE fusion polypeptide
B2: GST-NORE (7-413) (other, not shown: a dimerising Fc or GST)
chain: GQRPYPLLLDPEPPRYLQSLGGTEPPPPARPRRCIPTALIPAAGASEDRGGRRSGRRDPEPTPRDCRHARPVRPGLQPRLRLRPGSHRPRDVRSIFEQPQDPRVLAERGEGHRFVELALRGGPGWCDLCGREVLRQALRCANCKFTCHSECRSLIQLDCRQKGGPALDRRSPGSTLTPTLNQNVCKAVEETQHPPTIQEIKQKIDSYNSREKHCLGMKLSEDGTYTGFIKVHLKLRRPVTVPAGSGPSPSMDAIKEVNPAATTDKRTSFYLPLDAIKQLHISSTTTVSEVIQGLLKKFMVVDNPQKFALFKRIHKDGQVLFQKLSIADYPLYLRLLAGPDTDVLSFVLKENETGEVEWDAFSIPELQNFLTILEKEEQDKIHQLQKKYNKFRQKLEEALRESQGKPG

How the values were obtained:
[1] = biological target: T1, FLAG-tagged GCK; assay: anti-FLAG immunoprecipitation from co-transfected HEK293 cells, anti-HA immunoblot
Protocol: (§2) FLAG-tagged proteins were immunopreciptated with anti-FLAG M2-agarose, eluted with the excess of the FLAG peptide. The eluates were analyzed by immunoblotting after SDS-PAGE. Upper panel: proteins immunoprecipitated (IP) by FLAG-agarose probed with anti-HA antibody 12CA5 (α-HA). Middle panel: cell extracts probed with anti-FLAG antibody (α-FLAG).

[2] = biological target: T3, FLAG-tagged SOK (human, UniProt O00506 1-426); assay: as above
T3 construct: also called SOK1
Protocol: as §2

[3] = biological target: T2, FLAG-tagged wild type (wt) MST1; assay: anti-FLAG immunoprecipitation from co-transfected HEK293 cells, FLAG peptide elution, anti-HA immunoblot
Protocol: as §2

[4] = biological target: T4, FLAG-tagged Ha-RasG12V (human, UniProt P01112 1-189); assay: in vitro binding of FLAG-Ras from HEK293 extracts to GST fusion protein immobilized on GSH-agarose, anti-FLAG immunoblot
T4 construct: also called FLAG-V12RAS; FLAG Ha-RasG12V
Excerpt: (§1) Aliquots of extracts from these cells (as shown in the center panel) were adsorbed to the immobilized GST proteins; the beads were washed extensively and eluted with SDS.

[5] = biological target: T5, FLAG-tagged Ki-RasG12V (Meleagris gallopavo (Wild turkey), UniProt P79800 1-188); assay: as above
T5 construct: also called FLAG Ki-RasG12V
Excerpt: as §1

T3 sequence (O00506 other isoform, or with tags, fused parts or gaps limits assumed): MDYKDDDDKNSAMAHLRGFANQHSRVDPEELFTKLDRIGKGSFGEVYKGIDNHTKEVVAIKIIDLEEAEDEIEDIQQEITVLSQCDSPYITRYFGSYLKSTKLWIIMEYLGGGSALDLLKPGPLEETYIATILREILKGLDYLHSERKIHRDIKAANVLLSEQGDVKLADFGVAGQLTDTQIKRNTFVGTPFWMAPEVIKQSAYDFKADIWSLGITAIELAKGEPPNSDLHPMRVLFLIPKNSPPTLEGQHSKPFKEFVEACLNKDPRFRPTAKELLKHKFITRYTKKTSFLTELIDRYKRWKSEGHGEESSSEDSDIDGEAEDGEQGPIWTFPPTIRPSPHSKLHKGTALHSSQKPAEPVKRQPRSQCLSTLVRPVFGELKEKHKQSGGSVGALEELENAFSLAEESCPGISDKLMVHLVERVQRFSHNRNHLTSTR

Binder	binding result [1]	binding result [2]	binding result [3]	binding result [4]	binding result [5]
B1	no binding	no binding	binds	–	–
B2	–	–	–	binds	binds

Source: patent US20050064384A1 (published 2005)
